Measurements taken from patent publication US20120270784A1 (THERATECHNOLOGIES, published 2012).
Positions count from the first letter of the chain named. Blank lines part the entries; values can stand above or below the binder they belong to. Where no end group is shown, it is not given here.

Biological target: T1, human GRF receptor (human, UniProt Q02643 23-423)
T1 sequence (looked up): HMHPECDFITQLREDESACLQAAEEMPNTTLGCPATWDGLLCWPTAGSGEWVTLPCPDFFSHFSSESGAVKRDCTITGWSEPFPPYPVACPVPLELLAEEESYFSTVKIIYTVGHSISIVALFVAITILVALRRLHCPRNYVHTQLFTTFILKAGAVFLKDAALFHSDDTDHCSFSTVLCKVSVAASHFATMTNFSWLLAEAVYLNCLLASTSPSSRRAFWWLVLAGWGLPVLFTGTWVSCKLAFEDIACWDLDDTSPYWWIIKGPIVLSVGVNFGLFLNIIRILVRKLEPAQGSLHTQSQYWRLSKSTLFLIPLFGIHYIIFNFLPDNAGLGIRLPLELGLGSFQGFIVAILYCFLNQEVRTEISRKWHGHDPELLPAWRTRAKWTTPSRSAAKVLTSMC
Assay: cell-based or functional assay

EC50 as assessed by alkaline phosphatase (AP) induction: 2.47 nM
B2: Y-a-DAIFTDSYRKVLAQLKARQDILS-r-NH2 (SEQ ID NO: 21) (peptide)
peptide: YXDAIFTDSYRKVLAQLKARQDILSX
HELM: PEPTIDE1{Y.[dA].D.A.I.F.T.D.S.Y.R.K.V.L.A.Q.L.K.A.R.Q.D.I.L.S.[dR].[am]}$$$$V2.0; N-terminus assumed
SMILES: CC[C@H](C)[C@H](NC(=O)[C@H](C)NC(=O)[C@H](CC(=O)O)NC(=O)[C@@H](C)NC(=O)[C@@H](N)Cc1ccc(O)cc1)C(=O)N[C@@H](Cc1ccccc1)C(=O)N[C@H](C(=O)N[C@@H](CC(=O)O)C(=O)N[C@@H](CO)C(=O)N[C@@H](Cc1ccc(O)cc1)C(=O)N[C@@H](CCCNC(=N)N)C(=O)N[C@@H](CCCCN)C(=O)N[C@H](C(=O)N[C@@H](CC(C)C)C(=O)N[C@@H](C)C(=O)N[C@@H](CCC(N)=O)C(=O)N[C@@H](CC(C)C)C(=O)N[C@@H](CCCCN)C(=O)N[C@@H](C)C(=O)N[C@@H](CCCNC(=N)N)C(=O)N[C@@H](CCC(N)=O)C(=O)N[C@@H](CC(=O)O)C(=O)N[C@H](C(=O)N[C@@H](CC(C)C)C(=O)N[C@@H](CO)C(=O)N[C@H](CCCNC(=N)N)C(N)=O)[C@@H](C)CC)C(C)C)[C@@H](C)O

EC50 as assessed by alkaline phosphatase (AP) induction: 2.52 nM
Binder: YLDAIFTDSYRKVLAQLKARQDILARAARAAR-NH2 [YLDAIFTDSYRKVLAQLKARQDILARAARAAR-NH2 (SEQ ID NO: 35)]

EC50 as assessed by alkaline phosphatase (AP) induction: 0.2 nM
Binder: YGDAIFTDSYRKVLAQLKARQDILARAARAAR-NH2 [YGDAIFTDSYRKVLAQLKARQDILARAARAAR-NH2 (SEQ ID NO: 34)]

EC50 as assessed by alkaline phosphatase (AP) induction: 0.2 nM
B6: YGDAIFTDSYRKVLAQLKARQDILARAARAAR-HoSer-NH2 (SEQ ID NO: 36) (peptide)
peptide: YGDAIFTDSYRKVLAQLKARQDILARAARAARX
HELM: PEPTIDE1{Y.G.D.A.I.F.T.D.S.Y.R.K.V.L.A.Q.L.K.A.R.Q.D.I.L.A.R.A.A.R.A.A.R.[O=C([C@H](CCO)N[*:1])[*:2]].[am]}$$$$V2.0; N-terminus assumed
SMILES: CC[C@H](C)[C@H](NC(=O)[C@H](C)NC(=O)[C@H](CC(=O)O)NC(=O)CNC(=O)[C@@H](N)Cc1ccc(O)cc1)C(=O)N[C@@H](Cc1ccccc1)C(=O)N[C@H](C(=O)N[C@@H](CC(=O)O)C(=O)N[C@@H](CO)C(=O)N[C@@H](Cc1ccc(O)cc1)C(=O)N[C@@H](CCCNC(=N)N)C(=O)N[C@@H](CCCCN)C(=O)N[C@H](C(=O)N[C@@H](CC(C)C)C(=O)N[C@@H](C)C(=O)N[C@@H](CCC(N)=O)C(=O)N[C@@H](CC(C)C)C(=O)N[C@@H](CCCCN)C(=O)N[C@@H](C)C(=O)N[C@@H](CCCNC(=N)N)C(=O)N[C@@H](CCC(N)=O)C(=O)N[C@@H](CC(=O)O)C(=O)N[C@H](C(=O)N[C@@H](CC(C)C)C(=O)N[C@@H](C)C(=O)N[C@@H](CCCNC(=N)N)C(=O)N[C@@H](C)C(=O)N[C@@H](C)C(=O)N[C@@H](CCCNC(=N)N)C(=O)N[C@@H](C)C(=O)N[C@@H](C)C(=O)N[C@@H](CCCNC(=N)N)C(=O)N[C@@H](CCO)C(N)=O)[C@@H](C)CC)C(C)C)[C@@H](C)O

EC50 as assessed by alkaline phosphatase (AP) induction: 0.2 nM
B7: Y-a-DAIFTDSYRKVLAQLKARQDILARAARAAR-HoSer-NH2 (SEQ ID NO: 37) (peptide)
peptide: B6 peptide with G2X
HELM: PEPTIDE1{Y.[dA].D.A.I.F.T.D.S.Y.R.K.V.L.A.Q.L.K.A.R.Q.D.I.L.A.R.A.A.R.A.A.R.[O=C([C@H](CCO)N[*:1])[*:2]].[am]}$$$$V2.0; N-terminus assumed
SMILES: CC[C@H](C)[C@H](NC(=O)[C@H](C)NC(=O)[C@H](CC(=O)O)NC(=O)[C@@H](C)NC(=O)[C@@H](N)Cc1ccc(O)cc1)C(=O)N[C@@H](Cc1ccccc1)C(=O)N[C@H](C(=O)N[C@@H](CC(=O)O)C(=O)N[C@@H](CO)C(=O)N[C@@H](Cc1ccc(O)cc1)C(=O)N[C@@H](CCCNC(=N)N)C(=O)N[C@@H](CCCCN)C(=O)N[C@H](C(=O)N[C@@H](CC(C)C)C(=O)N[C@@H](C)C(=O)N[C@@H](CCC(N)=O)C(=O)N[C@@H](CC(C)C)C(=O)N[C@@H](CCCCN)C(=O)N[C@@H](C)C(=O)N[C@@H](CCCNC(=N)N)C(=O)N[C@@H](CCC(N)=O)C(=O)N[C@@H](CC(=O)O)C(=O)N[C@H](C(=O)N[C@@H](CC(C)C)C(=O)N[C@@H](C)C(=O)N[C@@H](CCCNC(=N)N)C(=O)N[C@@H](C)C(=O)N[C@@H](C)C(=O)N[C@@H](CCCNC(=N)N)C(=O)N[C@@H](C)C(=O)N[C@@H](C)C(=O)N[C@@H](CCCNC(=N)N)C(=O)N[C@@H](CCO)C(N)=O)[C@@H](C)CC)C(C)C)[C@@H](C)O

Continued, binder first:

B1: Trans-3-hexenoyl-YADAIFTDSYRKVLAQLSARQDIMSR-NH2 (SEQ ID NO: 44) (peptide)
peptide: YADAIFTDSYRKVLAQLSARQDIMSR
HELM: PEPTIDE1{[CC/C=C/CC(=O)[*:2]].Y.A.D.A.I.F.T.D.S.Y.R.K.V.L.A.Q.L.S.A.R.Q.D.I.M.S.R.[am]}$$$$V2.0
SMILES: CC/C=C/CC(=O)N[C@@H](Cc1ccc(O)cc1)C(=O)N[C@@H](C)C(=O)N[C@@H](CC(=O)O)C(=O)N[C@@H](C)C(=O)N[C@H](C(=O)N[C@@H](Cc1ccccc1)C(=O)N[C@H](C(=O)N[C@@H](CC(=O)O)C(=O)N[C@@H](CO)C(=O)N[C@@H](Cc1ccc(O)cc1)C(=O)N[C@@H](CCCNC(=N)N)C(=O)N[C@@H](CCCCN)C(=O)N[C@H](C(=O)N[C@@H](CC(C)C)C(=O)N[C@@H](C)C(=O)N[C@@H](CCC(N)=O)C(=O)N[C@@H](CC(C)C)C(=O)N[C@@H](CO)C(=O)N[C@@H](C)C(=O)N[C@@H](CCCNC(=N)N)C(=O)N[C@@H](CCC(N)=O)C(=O)N[C@@H](CC(=O)O)C(=O)N[C@H](C(=O)N[C@@H](CCSC)C(=O)N[C@@H](CO)C(=O)N[C@@H](CCCNC(=N)N)C(N)=O)[C@@H](C)CC)C(C)C)[C@@H](C)O)[C@@H](C)CC
EC50 as assessed by alkaline phosphatase (AP) induction: 9.73 nM

B3: Trans-3-hexenoyl-YADAIFTDSYRKVLAQLSARQDILS-r-NH2 (SEQ ID NO: 46) (peptide)
peptide: YADAIFTDSYRKVLAQLSARQDILSX
HELM: PEPTIDE1{[CC/C=C/CC(=O)[*:2]].Y.A.D.A.I.F.T.D.S.Y.R.K.V.L.A.Q.L.S.A.R.Q.D.I.L.S.[dR].[am]}$$$$V2.0
SMILES: CC/C=C/CC(=O)N[C@@H](Cc1ccc(O)cc1)C(=O)N[C@@H](C)C(=O)N[C@@H](CC(=O)O)C(=O)N[C@@H](C)C(=O)N[C@H](C(=O)N[C@@H](Cc1ccccc1)C(=O)N[C@H](C(=O)N[C@@H](CC(=O)O)C(=O)N[C@@H](CO)C(=O)N[C@@H](Cc1ccc(O)cc1)C(=O)N[C@@H](CCCNC(=N)N)C(=O)N[C@@H](CCCCN)C(=O)N[C@H](C(=O)N[C@@H](CC(C)C)C(=O)N[C@@H](C)C(=O)N[C@@H](CCC(N)=O)C(=O)N[C@@H](CC(C)C)C(=O)N[C@@H](CO)C(=O)N[C@@H](C)C(=O)N[C@@H](CCCNC(=N)N)C(=O)N[C@@H](CCC(N)=O)C(=O)N[C@@H](CC(=O)O)C(=O)N[C@H](C(=O)N[C@@H](CC(C)C)C(=O)N[C@@H](CO)C(=O)N[C@H](CCCNC(=N)N)C(N)=O)[C@@H](C)CC)C(C)C)[C@@H](C)O)[C@@H](C)CC
EC50 as assessed by alkaline phosphatase (AP) induction: 15.1 nM

B4: Trans-3-hexenoyl-YADAIFTDSYRKVLAQLSARQDILAR-NH2 (SEQ ID NO: 45) (peptide)
peptide: YADAIFTDSYRKVLAQLSARQDILAR
HELM: PEPTIDE1{[CC/C=C/CC(=O)[*:2]].Y.A.D.A.I.F.T.D.S.Y.R.K.V.L.A.Q.L.S.A.R.Q.D.I.L.A.R.[am]}$$$$V2.0
SMILES: CC/C=C/CC(=O)N[C@@H](Cc1ccc(O)cc1)C(=O)N[C@@H](C)C(=O)N[C@@H](CC(=O)O)C(=O)N[C@@H](C)C(=O)N[C@H](C(=O)N[C@@H](Cc1ccccc1)C(=O)N[C@H](C(=O)N[C@@H](CC(=O)O)C(=O)N[C@@H](CO)C(=O)N[C@@H](Cc1ccc(O)cc1)C(=O)N[C@@H](CCCNC(=N)N)C(=O)N[C@@H](CCCCN)C(=O)N[C@H](C(=O)N[C@@H](CC(C)C)C(=O)N[C@@H](C)C(=O)N[C@@H](CCC(N)=O)C(=O)N[C@@H](CC(C)C)C(=O)N[C@@H](CO)C(=O)N[C@@H](C)C(=O)N[C@@H](CCCNC(=N)N)C(=O)N[C@@H](CCC(N)=O)C(=O)N[C@@H](CC(=O)O)C(=O)N[C@H](C(=O)N[C@@H](CC(C)C)C(=O)N[C@@H](C)C(=O)N[C@@H](CCCNC(=N)N)C(N)=O)[C@@H](C)CC)C(C)C)[C@@H](C)O)[C@@H](C)CC
EC50 as assessed by alkaline phosphatase (AP) induction: 7.55 nM

B5: Trans-3-hexenoyl-YADAIFTDSYRKVLAQLKARQDILAR-NH2 (SEQ ID NO: 20) (peptide)
peptide: YADAIFTDSYRKVLAQLKARQDILAR
HELM: PEPTIDE1{[CC/C=C/CC(=O)[*:2]].Y.A.D.A.I.F.T.D.S.Y.R.K.V.L.A.Q.L.K.A.R.Q.D.I.L.A.R.[am]}$$$$V2.0
SMILES: CC/C=C/CC(=O)N[C@@H](Cc1ccc(O)cc1)C(=O)N[C@@H](C)C(=O)N[C@@H](CC(=O)O)C(=O)N[C@@H](C)C(=O)N[C@H](C(=O)N[C@@H](Cc1ccccc1)C(=O)N[C@H](C(=O)N[C@@H](CC(=O)O)C(=O)N[C@@H](CO)C(=O)N[C@@H](Cc1ccc(O)cc1)C(=O)N[C@@H](CCCNC(=N)N)C(=O)N[C@@H](CCCCN)C(=O)N[C@H](C(=O)N[C@@H](CC(C)C)C(=O)N[C@@H](C)C(=O)N[C@@H](CCC(N)=O)C(=O)N[C@@H](CC(C)C)C(=O)N[C@@H](CCCCN)C(=O)N[C@@H](C)C(=O)N[C@@H](CCCNC(=N)N)C(=O)N[C@@H](CCC(N)=O)C(=O)N[C@@H](CC(=O)O)C(=O)N[C@H](C(=O)N[C@@H](CC(C)C)C(=O)N[C@@H](C)C(=O)N[C@@H](CCCNC(=N)N)C(N)=O)[C@@H](C)CC)C(C)C)[C@@H](C)O)[C@@H](C)CC
EC50 as assessed by alkaline phosphatase (AP) induction: 0.98 nM
